B1: G. sulfurreducens SPARSA complex (short pAgo/Sir2-APAZ heterodimer) (complex)
chain 1: not shown
chain 2: MDVLTDNEFYQHYLQNSQHMMWFLGAGTSRSAGLPTASDIIWDLKHRYYCLHENQDYQKHDINNHAIKSKIQSYMDSKGFPLQWSPEEYSFYFELVFRDDYEAQRKYLLEALASRKVSLNIGHRVLAALLEMNQTKVVFTTNFDDVIETAFSDISGKHLSVYHLEGSYAALSALNTEAFPIYAKIHGDFRYQKIKNLTPDLQTNDREIHKCFLAAAIRFGLVVSGYSGRDENVMTMLRAAIDQNNAFPHGLYWTVPSISKSEPAVQDLITYAQGKGVRAYLVETGTFDEMLSKIWRQVKDKPAAIDAKVRTARVCPVSIPLPGPGKSFPALRTNALPVVTQSIRCGVVTLASPITFSELKERISQKSPKALLTYTEKVLFLGGEPEIRKIFSNDEINSIGQYYIDEIAQSVAASTFLKSFVEEAILTALLREKPILHRVRHRTHYAVIPNASAKDDRFLDLRKAVGFKGDLGYITGNVTNAKELSWAEAVSIRLEERGGKLWIMLKPEIWIKPLDRREEATDFIRSRRRYRFNQCSYQILDAWIKILFGSIGGGGTVNISCFPDAEFKAEFEIGTRTAFSLGVGYGR
B2: Geobacter sulfurreducens Sir2-APAZ (natural protein, UniProt Q74DF6 1-587, looked up)
chain: B1 chain 2

Biological target: the molecule itself
Experiment: cryo-EM structure

| Protein | stoichiometry N | binding result |
| --- | --- | --- |
| B1 | 4 | – |
| B2 | – | binds |

Reference: article PMC11452484 (Nature Communications, 2024)
